This series is described as follows: label from the status in PepcDB records.
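Also: failed if final PepcDB status was selected cloned or expressed and not failed if soluble or beyond.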

As to “MLIDPIELYRYPEKWIKDRDAEKKVRSGLYILTEDGYLRRGITTGTTASAAAVAAIASLKEKVEKVKVSTPAGVDVEVEVEAEKGFARVRKFSGDHEFDVTNGIIFEAEVCETSGIFFGRGVGVKAGEKAVSRSAKLQILENFIKASREFNFSGGVRISVPDGEEVAKKTGNEKVGIKGGISILGTTGFVEPWCKKLVETKLKIAMQYHRIAITTGRKAWLYARKKFPEYQPFVFGVHIDEALKHPGEKIIVGFPGLLKIWAGSRDRIEERAREEGVRVVVIEDDMDSWVWDVQGTDH”, the protein production result is listed as “not failed”.
Consider “MLIFKIFRRSEWDDFRRAGATAGAPVDLADGYIHFSTAAQVAETAAKHFTAESDLVLVAIDPDRAGPDLKWEPSRGEQLFPHLYRRLTLDDVVWDKSLPLGATGHIFPEGLWLEHHHHHH”, for which the protein production entry is listed as “not failed”.
With “MLIKRLAFAIMTLVIMTSAGCGFKLQRSYQIPEQLNQLSLSSSDEYSELTRLVRERLRLNNVKIVDAANDVPVLRLITDSLERSTLSLYPTGNVAEYELIYFVEFAVALPGKEAQPFKIEIRRDYLDDPRTALAKSREMELLVKEMRIQAADRILQSMASTEVNLEHHHHHH” the entry was “not failed”; with “MLILSTEKEPNFEYEEITRSFLSNMLAFTRGHFTGDISHFSPIVLAEMEKDPNWLEEAAGGMQGVIVQSLLEDENFSSVEQLKGELARLIRLYFALAKDNLTENQESLYVDLFDKFTFLLLCSDEFIMYLDSQPKF”, “not failed”.
With “MLIRAIPFVFVILWASGFVGARFGLQYAEPATLLSIRMAFNVLLFLVLVAVLRRRLPTGTDFWHSCVVGALIHGFYLGGTYFAIALGMPAGLSSLLVGIQPILTAALLVAFVREEFKPSQWLGLALGFVGIAMVLMGKMEWQSEQHKVLAIGLCLLALVGITLGTLYQKKHCQQVDMVGGATVQYLAALIMFLPVAMQFETMQVQWELEFILTVLWLVVVLSCVAILLLLYMVRNGASSSVASVFYLVPPTTAIQAWLAFGESFDWMGISGFVLAATAVYLVVKKPDLTIKKAIKTEYT” the entry was “failed”.
With “MLIREAKLAGTPEQFAQLDAAIRTAQCVHNRCLRYWRDNAGVSKNDLQKFCAVLAKDAEQPWMGLLNSQARQAAAERTWQSIQSFYRRCKEGAKHKGYPKFKKHSRSVEYKTSGWKLSDDGMSITFTDGFKAGQLELWLDGSARQLILSSKINRVRVVRRADGYYAQFCLDVERQEAGVYSGNVIGLDLGLKYFTKDSNGAEVACPKFFRKGEKRLRRAQRRLSKRFKKGAKPQSKNYHKQRQRIGKVHLKIQRQRKSWAIEQARRVMVSNDIVVYEDLRVPNLVRSRHLAKSIHDAGWTQFTHWLDYYGKLWRKVVVAVNPAYTSQDCSGCGYRVQKSLSTRTHDCPHCGLTICRDQNAALNILKRGLEVVGAEWNNGTAGHAETGSQEQTTGEISTSAEVGQPTSVSAVAEPVRTSREAV” the entry was “failed”; with “MLIRKITRKNPSPDVLEEAISVMEGGGIVIYPTDTIYGLGVNALDEDAVRRLFRVKGRSPHKPVSICVSCVDEIPRFSRPSGDAMELMERILPGPYTVVLERNELIPDVITGGSSRVGIRVPDDEICRRIAARFPVTATSANISGKPPSPRLEEIVRDLDAVDLVLDAGDCLDMEPSTVIDLTVNPPRVLRRGKGPLDPVLLRGAGDV”, “not failed”; with “MLIRPFLQYILGAVLLAYVLYPLQIRLETYVSPMLAALSLVTLAVTGFVAPVVVVLASIMESADRILREFGTDPVQLDILESRIKGLTGVEVDIAGELVSSGRDIGTIIVERSTQAFSTITFHLIGIALALFLIYYLLKDGDDLVDWLHRTVPLPVDVQRDFYAEIDDVMLGVLFGHVFVAIVQGIVAGVGLAATGVPNAMFWTAVMVVLAMVPLIGTIPVWGGAVIYLYATDEPLLAVGLFLYSVIIVGLTDDYLRPFAVDRYAKLNPAVILLGILGGAYAFGVMGLLFGPVVLGALKAALRVGLDTWSQIDDGNIG”, “failed”.
For the sequence “MLISAIIGGVEYINLYRFPEIPLVGFTLIGVVLSIFLGFKNTACYDRWWEARKLWGVLIATSRHFDRDCRILTQARRERVIQHVIVFANVLRDRLRRQTANPTELIQTSGMSQQALTQLYQQNNAPQYTLSLIQWELLQALKEGEISDIIYAQMNKNVADLSVVQTGCDRIANTPIPFAYSVLLNRTVYFFCFMLPFSLGSLLGLATPLLVGILAYTFLGLDALSTEIEEPFGTQSNDLPLDAMVRSIEIELLGTLGKPTPPPIQAQDNNLL”, the protein production entry was “failed”.
For “MLISIESKEHYRILCIDGGSTDQTIPMIERLQRELKHISLIQLQNASIATCINKGLMDIKMTDPHDSDAFMVINPTSIVLPGKLDRLTAAFKNNDNIDMVIGQRAYNYHGEWKLKSADEFIKDNRIVTLTEQPDLLSMMSFDGKLFSAKFAELQCDETLANTYNHAILVKAMQKATDIHLVSQMIVGDNDIDTHATSNDEDFNRYIIEIMKIRQRVMEMLLLPEQRLLYSDMVDRILFNNSLKYYMNEHPAVTHTTIQLVKDYIMSMQHSDYVSQNMFDIINTVEFIGENWDREIYELWRQTLIQVGINRPTYKKFLIQLKGRKFAHRTKSMLKRLEHHHHHH”, the protein production entry is “failed”.
With “MLISKKTLGVLIPDIFSFSNDQIAQKLEQMGIEVESIKQFNSPDYLQLAKVVSIQPHPHDNKLFICELQIDKNKFINVVSNANNINNPDNINKFVIVAKKGTELLNGLIVKTQNIKGIISEGILCSYIDINPFSRQIIEKTEVADAIIIDHVSNDHDWNQYLSFLSLDDVIFDVKTPTNRADLHSLIFLAKELGVLLKTKTFLKQKSSVVNHDFFKFPLNLKNKLKANYFGGLFLRQINQHSSPWTVKGLLINQMIKPVNYYVDKANLVTVFTAQPIHCHDADRIVGNIELKQATHNETFVGLDDKQYEIEPGDIVVCDEKGIIALVGIIGSKRTMVQPTTTNIFFEVVNCNSETIKQTAKRFLINNFASKFMVKPISLLATDNCLNYLQNSLLTTDNIGKISHFSSSLKVEPFSKKLTVNFHKIRQLIGIEKKELTDQTIKKSLSQLGFKVDNQLLKIPSYRQDINTWQDISEEIVKLIDINKLKPIGITSSFNFEKSSYFNTFNALTKLRKKLQTLGFHNVITYQLTDQKSAKTFNLFNLENFITIKNPVSQNHSVMRVSLIDSLLKVLKTNNNYKNELVNIFEFSFIKTQNNSELHLAVLWVEKLFTSSFNPMQGISNDVFTMKGLAKLIVANLGFSCDFEPLDDSDYFVNNQSLKIVVFNEQIGFIGLIKESLLNNYDLNNKPIYCLEINLDRMLSSLNRIEKNYLGYSKLQPVCKDLTFSFTNPASHFDQFANMIKRITGIESWKLISVFETMQNNQLITKYTVRYFLKNDANKPLTNQTIELITNNLKLQCEKLKIKLDI” the entry was “failed”; with “MLISLIVPIYNVEGFLPRCLDSIIKQEYQNLEIVLVNDGSTDQSGLICDQYAEKDERFIVFHKENGGVSSARNVGLNKANGNYIGFVDPDDWIEPNMINKLYELIIQHKADIAMCGYVKEDINGLLISRPVELSTKILNKEDTLNSILNPNDFRGFLCNKLFSVDLFRKKNLYLDEDIHFCEDLLFCCQAILESKQIVYDSTPYYHYIIHNNNASKSNFSFKKLTALNSLDNIINLLNDQKGIELEQYKNYYMHLNISLLMNGIHEDKIRRQDKERLKKNLYKFKINDLTSKFVKFSCVLARLNLNLYYFIWKNAKPSNLEHHHHHH”, “failed”.
With “MLIVSGCSSSQNNNGSGKSESKDSRVIHDEEGKTTVSGTPKRVVVLELSFLDAVHNLGITPVGIADDNKKDMIKKLVGSSIDYTSVGTRSEPNLEVISSLKPDLIIADAERHKNIYKQLKKIAPTIELKSREATYDETIDSFTTIAKALNKEDEGKEKLAEHKKVINDLKAELPKDENRNIVLGVARADSFQLHTSSSYDGEIFKMLGFTHAVKSDNAYQEVSLEQLSKIDPDILFISANEGKTIVDEWKTNPLWKNLKAVKNGQVYDADRDTWTRFRGIKSSETSAKDVLKKVYNK” the entry was “failed”; with “MLKEKAGVIAGTIWNALNETEGMTAKQLKKATKLVDKDLFLGLGWLLREDKVSVEEVEGELFIKLI”, “failed”; with “MLKGFNSGDISYEILEKKKENIEQQALERFLEEKSEKENKHIPKEDMLFNSKDSIAMERIVGKNDLFPISYLQIGLNISKSVCRISIRDSRGVVVGYGTGFLVAPNIILTNNHVINSYEVASNSIAEFNYQDDENFMPCPTYNFRLNPQTFFITNVKLDFTLVALNENVTNQKHLEDFGYLKMTQKEGTILPEEYVSIIQHPKGGPKSVTLRENKVSGLKENFIHYLTDTEPGSSGSPVFNDQWTLVALHHSGVPNPEIKDEWIANEGILISAIVNYLAKKYSSLKENEQAIIKEIVPDIELPKENNITSSVDDEPLGYNPLFLGKDYEIPLPKLSKEMEKDTAKTEDGNYVLDYIHFSIVMKKSRGLAYFTAVNIDGTDAVKIRRTADNWKFDPRISQNYQYGDEVYVNNDLDRGHLVRRTDPNWGKNALKANEDTFYFTNSTPQHKNLNQKTWVELEDYIFRNAVLNQFKVSVFTGPVFREDDMIYRQKYQIPAEFWKVVVMLKEDGNISATAYLQTQKNMIENLEFAYGEYKTYQVPVRNIEKLTGLDFGNLSKFDPMANIEATGIVITGPESIKF”, “failed”.
With “MLKGFTRSSISPQLCSLYFKGLVGDDSLAGFGVAICGHRDDILFQLNAPIHGSDITVLEAELMALKRGLIEAAGFKSSFTIFVEGSSIRYVSELARATIVSELSISVDPPSSSLNGIEKLKLEDVIVWNVVNPYASTAKFGKSENVASMWKVPTHDRTFRRMHQSNLQFTFDFLGCWIGVAIRFATHAEQNGSKEVALIEQ” the entry was “failed”; with “MLKILATQFNGKLQTLTKQEDELFDVVRLLAQALVGQGKVYLDAYGEFEGLYPMLSDGPDQMKRVTKIKDHKTLHAVDRVLIFTPDTERSDLLASLARYDAWHTPYSIITLGDVTETLERSIAPLALKFDKGLLPAEDGSRHGLPSLALGAFLLTHILTQLQEMTEEWE”, “not failed”; with “MLKKLFAPPQKRERLSAEEIKHKYPRYRVQVLISIFVGYMGYYFVRNTTSILSGILNMSATEIGIITCASYIAYGLSKFISGLISDESNSKIFLPVGLFLTGLVNVLIGVIPSVITSIWLFTIMYLINGWLQGMGYPPGARTLVYWYDNKERIKYATIWNLSHNFGGAIAPILTGVGLALAGNDSLNQARAAYWFPGVVACLLAVLVYFLQEDTPESIGLPPIEEYHKEQYTNVVDSSDILEEPEVLGMGEIIKKYILPNTKLMWASLYSIFVYILRYGIVSWTPKFLATSVQDGGKGITATAGMGGFSLFEIGGIIGMLTAGYLSAKVFKNSKPLTNVAFLVVAILLLAAYWFIPAGPQYMALDFIILLGLGASIYGPVMMVGLYAMELVPKAAAGAASGLTGTFSYVGGATIATLAIGIIIDHFGWGVAFIIFGISGFAAIVCTLLSRDKSLEYW”, “failed”.
With “MLKLSNFGPGALVAAAFIGPGTVVTASLAGANFGYALLWALLFSVVACVILQEMSARIGLVTQAGLGENIRNNLTSGWLRWLALLLIFSAIAIGNSVYQGGNLSGASLGASELLGPVPVLDVWLSNAWALIIGIIALLILWSGNARVIERALIVMVLLMSVAFIGTFLLTDPDWGAVFNGTFGFSMPTGATLTVVALIGTTVVPYNIFLHASSVSKKWKTAEELPAARRDLFLSIPFGGLISMAIVATAASAFFGQQVEIESAGDLAESLRPLFGDGATYLMAIGLFAAGISSATTAPLASAYALCGIMGWSVNLRSRAFRIIWFTILVIGIIISSVGIKPVTVIWFAQVANGILLPIIVGFLWWLCQSPLLGKYRNSLLQNILAAIIFLISVVLSGRSLGSAFGFW”, the protein production result is given as “failed”.
With “MLKPLVLSDSSPVRPRDLTLLDQEEAGLVSTFINRPPIDIFKILPSKDDPDWPSFQQILSKFPDTEHLCPDGGLVNNSFILDIVLPQKWIDHRVCNPRFFQSIVSTTCYFMGFVFYADLNLGFMHFSPFHIAII” the entry was “failed”; with “MLKQTSDSPVGTLFIIIEDAHITKISYDEPTNWEILAGEKGEIAIYQQLLEQLAGYFEGEREVFDLPIFLQGTPFQQRVWQALSEIPYGVVVSYKDIAIAAGSPKAVQAVGQANRANPIPILIPCHRCVKSDGALGGYNGADIDKKQYLLALEKGLRLS”, “failed”.
